This passage reports Kd, activity (fold activation) and activity (fold repression) results from patent publication US20030037355.

Series [1] deals with 2C7 six-finger zinc finger protein (artificial). The settings on record: CITED earlier work; cited from earlier work.
Series [2] concerns the target C7-VP64 three-finger activator (artificial) (UniProt P08046). In words: cell_activity. The following applies: tobacco protoplasts, Reporter II pc7rbTATA; Reporter I 10 fold.
For series [3], the system named is SID-2C7 six-finger repressor (artificial). In words: cell_activity. The following applies: tobacco protoplasts; almost 2 fold in maize.
Series [4] has as its system e2c six-finger zinc finger protein (artificial). The settings on record: CITED Beerli et al. 1998; cited from earlier work.

For orientation: Kd means the equilibrium constant for the complex coming apart. For the substance “GCGTGGGCGGCGTGGGCG (double strand) [2C7 binding site (six tandem repeats in reporters)]”, the Kd in series [1] was 0.46 nM. In series [2], this substance displayed an activity (fold activation) of 100. In series [3], this substance showed an activity (fold repression) of 5.

Consider e2c target site, for which the dissociation constant Kd in series [4] is 0.5 nM.
